According to publication PMC5043356, “A general solution for opening double-stranded DNA for isothermal amplification”:

Target: RecA (Escherichia coli BJ5183, UniProt P0A7G6 1-353)
Assay: EMSA; no nucleotide cofactor; 1 mM Mg2+ (10 mM in Fig. S1B); about 5 nt per RecA; 25 mM Tris pH 7.6, 1 mM MgCl2 (10 mM in supplementary assays), 1 mM DTT, 37 C, 10 min, 12 pmol X1 in 10 ul; 2% native agarose gel
Settings: protein: recombinant; tags: His tag (pET28a, Ni purification); single strand

Sequence of RecA (P0A7G6 whole entry): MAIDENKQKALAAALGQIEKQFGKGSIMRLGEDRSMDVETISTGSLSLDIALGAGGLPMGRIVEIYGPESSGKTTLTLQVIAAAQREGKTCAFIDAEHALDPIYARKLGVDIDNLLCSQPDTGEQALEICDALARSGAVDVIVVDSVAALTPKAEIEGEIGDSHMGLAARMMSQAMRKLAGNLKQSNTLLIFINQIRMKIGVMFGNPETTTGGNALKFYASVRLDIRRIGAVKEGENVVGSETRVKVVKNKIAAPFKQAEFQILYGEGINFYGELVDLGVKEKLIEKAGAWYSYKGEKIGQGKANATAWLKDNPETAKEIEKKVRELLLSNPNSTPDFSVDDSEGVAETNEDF

B1: X1 (54 nt) (ssDNA)
DNA: TACGTTAACAAAAAGTCAGATATGGACCTTGCTGCTAAAGGTCTAGGAGCTAAA
binding result: binds
